According to US20200317768A1 (published 2020):
Residue numbers refer to the chain shown, from its start. In names and notes the source's numbering stands.

T1: cynomolgus monkey FcγRIIa3 extracellular domain, C-terminal His-tag (cynomolgus monkey)
T1 construct: also called cyno FcγRIIa3; cynoFcgRIIa3; not shown: His-tag added to C-terminus
T1 chain: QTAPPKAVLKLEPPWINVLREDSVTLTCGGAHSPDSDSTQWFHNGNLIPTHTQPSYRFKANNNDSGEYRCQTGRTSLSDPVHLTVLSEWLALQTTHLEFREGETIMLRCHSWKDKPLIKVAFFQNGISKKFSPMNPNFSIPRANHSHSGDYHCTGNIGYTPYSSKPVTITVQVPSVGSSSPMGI

T2: human FcγRIIaR extracellular domain, C-terminal His-tag (human, UniProt P12318 34-217)
T2 construct: also called human FcγRIIa (type R); FcgRIIaR; not shown: His-tag added to C-terminus
T2 chain: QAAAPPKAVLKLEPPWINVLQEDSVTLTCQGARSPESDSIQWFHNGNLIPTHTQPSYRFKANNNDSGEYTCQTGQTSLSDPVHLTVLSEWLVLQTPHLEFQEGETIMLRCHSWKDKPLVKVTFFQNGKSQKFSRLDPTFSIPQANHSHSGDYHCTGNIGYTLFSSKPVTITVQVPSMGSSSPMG

T3: cynomolgus monkey FcγRIIb extracellular domain, C-terminal His-tag (cynomolgus monkey)
T3 construct: also called cyno FcγRIIb; cynoFcγRIIb; not shown: His-tag added to C-terminus
T3 chain: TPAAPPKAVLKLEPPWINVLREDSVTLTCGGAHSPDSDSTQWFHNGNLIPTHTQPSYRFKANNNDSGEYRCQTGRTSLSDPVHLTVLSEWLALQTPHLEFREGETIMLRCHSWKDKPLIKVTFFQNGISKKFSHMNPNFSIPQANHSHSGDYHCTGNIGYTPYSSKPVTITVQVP

T4: cynomolgus monkey FcγRIIa1 extracellular domain, C-terminal His-tag (cynomolgus monkey)
T4 construct: also called cyno FcγRIIa1; cynoFcgRIIa1; not shown: His-tag added to C-terminus
T4 chain: T1 chain with T95P, A121T, S128A, P133H, N135D

T5: human FcγRIIaH extracellular domain, C-terminal His-tag (human, UniProt P12318 34-217)
T5 construct: also called human FcγRIIa (type H); FcgRIIaH; not shown: His-tag added to C-terminus
T5 sequence: T2 chain with R134H

T6: cynomolgus monkey FcγRIIa2 extracellular domain, C-terminal His-tag (cynomolgus monkey)
T6 construct: also called cyno FcγRIIa2; cynoFcgRIIa2; not shown: His-tag added to C-terminus
T6 chain: T1 chain with I127K, K130N, P133H, R142Q

T7: human FcγRIIb extracellular domain, C-terminal His-tag (human, UniProt P31994 43-217)
T7 construct: also called humanFcgRIIb; not shown: His-tag added to C-terminus
T7 sequence: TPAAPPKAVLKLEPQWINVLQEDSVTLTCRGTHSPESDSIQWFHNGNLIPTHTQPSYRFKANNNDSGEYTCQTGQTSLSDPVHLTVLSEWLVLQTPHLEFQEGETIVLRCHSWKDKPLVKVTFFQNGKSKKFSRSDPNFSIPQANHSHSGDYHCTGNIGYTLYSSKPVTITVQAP

B1: M103240H795-SG1074 / M103202L1045-SK1 (antibody)
heavy: QVQLVESGGGLVQPGGSLRLSCAVSGIDLSHDDISWVRQAPGKGLEWVSIISYAGSTYYASWAKGRLTISKDTSKNQVVLTMTNMDPVDTATYYCARGVPAYSHGGDLWGQGTLVTVSSASTKGPSVFPLAPSSKSTSGGTAALGCLVKDYFPEPVTVSWNSGALTSGVHTFPAVLQSSGLYSLSSVVTVPSSSLGTQTYICNVNHKPSNTKVDKKVEPKSCDKTHTCPPCPAPELLNGPSVFLFPPKPKDTLMISRTPEVTCVVVDVSDEDPEVKFNWYVDGVEVHNAKTKPREELYNSTYRVVSVLTVLHRDWLNGKEYKCKVSNTALPKPIEKTISKAKGQRREPQVYTLPPSREEMTKNQVSLTCLVKGFYPSDIAVEWESNGQPENNYKTTPPVLDSDGSFFLYSKLTVDKSRWQQGNVFSCSVLHEALHAHTTRKELSLSP
light: DIVMTQSPATLSLSPGERATLSCTTSQSVYHENWLSWFQQKPGQPPKLLIYWASTLAYGVPSRFSGSGSGTDFTLTISSLQPEDAATYYCAGGYGGGRYAFGQGTKVEIKRTVAAPSVFIFPPSDEQLKSGTASVVCLLNNFYPREAKVQWKVDNALQSGNSQESVTEQDSKDSTYSLSSTLTLSKADYEKHKVYACEVTHQGLSSPVTKSFNRGEC
notes: CH with G236N/H268D/Q295L/Q311R/K326T/A330K/P343R/M428L/N434A/Y436T/Q438R/S440E against SG1 (EU numbering); also called MS1032LO19-SG1074
B2: M103240H795-SG1077 / M103202L1045-SK1 (antibody)
heavy: B1 heavy with L237W
light: B1 light
notes: CH with L235W/G236N/H268D/Q295L/Q311R/K326T/A330K/P343R/M428L/N434A/Y436T/Q438R/S440E against SG1 (EU numbering); also called MS1032LO19-SG1077
B3: M103240H795-SG1079 / M103202L1045-SK1 (antibody)
heavy: B1 heavy with T328K, R345P, D415K, L430M, T438Y
light: B1 light
notes: CH with G236N/H268D/Q295L/Q311R/A330K/D413K/N434A/Q438R/S440E against SG1 (EU numbering); also called MS1032LO19-SG1079
B4: M103240H795-SG1080 / M103202L1045-SK1 (antibody)
heavy: B1 heavy with L430M, T438Y
light: B1 light
notes: CH with G236N/H268D/Q295L/Q311R/K326T/A330K/P343R/N434A/Q438R/S440E against SG1 (EU numbering); also called MS1032LO19-SG1080
B5: M103240H795-SG1081 / M103202L1045-SK1 (antibody)
heavy: B1 heavy with L237W, L430M, T438Y
light: B1 light
notes: CH with L235W/G236N/H268D/Q295L/Q311R/K326T/A330K/P343R/N434A/Q438R/S440E against SG1 (EU numbering); also called MS1032LO19-SG1081

Biological target: T1, cynomolgus monkey FcγRIIa3 …
Assay: SPR (BIACORE); KD of parent SG1 / KD of variant;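 also: relative to parent M103205H795-SG1 carrying the SG1 human heavy chain constant region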
Protocol: (§1) The kinetic analysis of interactions between these antibodies and FcγR was carried out using BIACORE® T200 or BIACORE® 4000 (GE Healthcare). HBS-EP+ (GE Healthcare) was used as the running buffer, and the measurement temperature was set to 25° C. A chip produced by immobilizing Protein A. Protein A/G or mouse anti-human IgG kappa light chain (BD Biosciences) onto a Series S Sensor Chip CM4 or CM5 (GE Healthcare) by the amine-coupling method was used. […] After the measurement, the antibody captured on the chip was washed off by allowing reaction with 10 mM glycine-HCl, pH1.5 and 25 mM NaOH so that the chip was regenerated and used repeatedly. The sensorgrams obtained as measurement results were analyzed by the 1:1 Langmuir binding model using the BIACORE® Evaluation Software to calculate the binding rate constant ka (L/mol/s) and dissociation rate constant kd (l/s), and the dissociation constant KD (mol/L) was calculated from these values. […] Regarding such interactions, KD values were calculated using the following 1:1 binding model described in BIACORE® T100 Software Handbook BR1006-48 Edition AE.

Row | KD fold (SG1 = 1) | Binder
1 | 6.2 fold | B1
2 | 3.3 fold | B2
3 | 3.2 fold | B3
4 | 6.1 fold | B4
5 | 3.1 fold | B5

Biological target: T8, cynomolgus monkey FcγRIIIaS extracellular domain, C-terminal His-tag (cynomolgus monkey, UniProt A3RFZ7 21-206 (rhesus entry))
T8 construct: also called cyno FcγRIIIaS; cynoFcγRIIIaS; not shown: His-tag added to C-terminus
T8 sequence (A3RFZ7 21-206): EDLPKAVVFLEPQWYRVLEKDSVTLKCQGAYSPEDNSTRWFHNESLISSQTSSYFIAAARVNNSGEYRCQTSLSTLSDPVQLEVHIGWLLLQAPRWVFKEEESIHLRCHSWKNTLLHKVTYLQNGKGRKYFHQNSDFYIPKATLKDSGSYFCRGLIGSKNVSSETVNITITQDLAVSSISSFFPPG
Assay: SPR (BIACORE); KD of parent SG1 / KD of variant;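 also: relative to parent M103205H795-SG1 carrying the SG1 human heavy chain constant region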
Protocol: as §1

Row | KD fold (SG1 = 1) | Binder
6 | 0.19 fold | B1
7 | 0.09 fold | B2
8 | 0.08 fold | B3
9 | 0.19 fold | B4
10 | 0.09 fold | B5

Biological target: T2, human FcγRIIaR extracellular domain, …
Assay: SPR (BIACORE); KD of parent SG1 / KD of variant;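 also: relative to parent M103205H795-SG1 carrying the SG1 human heavy chain constant region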
Protocol: as §1

Row | KD fold (SG1 = 1) | Binder
11 | 1.8 fold | B1
12 | 1.4 fold | B2
13 | 0.8 fold | B3
14 | 1.7 fold | B4
15 | 1.4 fold | B5

Biological target: T3, cynomolgus monkey FcγRIIb extracellular …
Assay: SPR (BIACORE); KD of parent SG1 / KD of variant;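 also: relative to parent M103205H795-SG1 carrying the SG1 human heavy chain constant region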
Protocol: as §1

Row | KD fold (SG1 = 1) | Binder
16 | 11.1 fold | B1
17 | 5.4 fold | B2
18 | 5.7 fold | B3
19 | 12.6 fold | B4
20 | 5.9 fold | B5

Biological target: T4, cynomolgus monkey FcγRIIa1 …
Assay: SPR (BIACORE); KD of parent SG1 / KD of variant
Protocol: as §1

Row | KD fold (SG1 = 1) | Binder
21 | 5.4 fold | B1
22 | 2.7 fold | B2
23 | 3.4 fold | B3
24 | 5.8 fold | B4
25 | 2.7 fold | B5

Biological target: T5, human FcγRIIaH extracellular domain, …
Assay: SPR (BIACORE); KD of parent SG1 / KD of variant
Protocol: as §1

Row | KD fold (SG1 = 1) | Binder
26 | 2.2 fold | B1
27 | 1 fold | B2
28 | 1.4 fold | B3
29 | 2.1 fold | B4
30 | 1 fold | B5

Biological target: T6, cynomolgus monkey FcγRIIa2 …
Assay: SPR (BIACORE); KD of parent SG1 / KD of variant
Protocol: as §1

Row | KD fold (SG1 = 1) | Binder
31 | 6.1 fold | B1
32 | 3.1 fold | B2
33 | 3.4 fold | B3
34 | 6.1 fold | B4
35 | 3.2 fold | B5

Biological target: T7, human FcγRIIb extracellular domain, …
Assay: SPR (BIACORE); KD of parent SG1 / KD of variant
Protocol: as §1

Row | KD fold (SG1 = 1) | Binder
36 | 10.2 fold | B1
37 | 7.5 fold | B2
38 | 5.6 fold | B3
39 | 10.5 fold | B4
40 | 7.7 fold | B5

Biological target: T9, human FcγRIIIaV extracellular domain, C-terminal His-tag (human, UniProt P08637 17-208)
T9 construct: also called FcgRIIIaV; not shown: His-tag added to C-terminus
T9 sequence (P08637 17-208 F176V): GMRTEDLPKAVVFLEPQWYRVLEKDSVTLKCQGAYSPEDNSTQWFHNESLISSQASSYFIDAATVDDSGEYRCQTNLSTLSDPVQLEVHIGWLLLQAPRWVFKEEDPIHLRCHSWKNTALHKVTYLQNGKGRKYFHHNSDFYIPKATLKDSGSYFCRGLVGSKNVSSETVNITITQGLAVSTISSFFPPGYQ
Assay: SPR (BIACORE); KD of parent SG1 / KD of variant
Protocol: as §1

Row | KD fold (SG1 = 1) | Binder
41 | 0.18 fold | B1
42 | 0.17 fold | B2
43 | 0.18 fold | B3
44 | 0.13 fold | B4
45 | 0.17 fold | B5

Biological target: T1, cynomolgus monkey FcγRIIa3 …
Assay: SPR (BIACORE), antibody captured, FcγR analyte
Protocol: as §1

Row | Kd | Binder
46 | 1100 nM | B1
47 | 2000 nM | B2
48 | 2100 nM | B3
49 | 1100 nM | B4
50 | 2100 nM | B5

Biological target: T8, cynomolgus monkey FcγRIIIaS …
Assay: SPR (BIACORE), antibody captured, FcγR analyte
Protocol: as §1

Row | Kd | Binder
51 | 1400 nM | B1
52 | 2900 nM | B2
53 | 3300 nM | B3
54 | 1400 nM | B4
55 | 2900 nM | B5

Biological target: T2, human FcγRIIaR extracellular domain, …
Assay: SPR (BIACORE), antibody captured, FcγR analyte
Protocol: as §1

Row | Kd | Binder
56 | 540 nM | B1
57 | 690 nM | B2
58 | 1200 nM | B3
59 | 560 nM | B4
60 | 680 nM | B5

Biological target: T3, cynomolgus monkey FcγRIIb extracellular …
Assay: SPR (BIACORE), antibody captured, FcγR analyte
Protocol: as §1

Row | Kd | Binder
61 | 160 nM | B1
62 | 320 nM | B2
63 | 300 nM | B3
64 | 140 nM | B4
65 | 290 nM | B5

Biological target: T4, cynomolgus monkey FcγRIIa1 …
Assay: SPR (BIACORE), antibody captured, FcγR analyte
Protocol: as §1

Row | Kd | Binder
66 | 700 nM | B1
67 | 1400 nM | B2
68 | 1100 nM | B3
69 | 650 nM | B4
70 | 1400 nM | B5

Biological target: T5, human FcγRIIaH extracellular domain, …
Assay: SPR (BIACORE), antibody captured, FcγR analyte
Protocol: as §1

Row | Kd | Binder
71 | 450 nM | B1
72 | 930 nM | B2
73 | 670 nM | B3
74 | 450 nM | B4
75 | 990 nM | B5

Biological target: T6, cynomolgus monkey FcγRIIa2 …
Assay: SPR (BIACORE), antibody captured, FcγR analyte
Protocol: as §1

Row | Kd | Binder
76 | 680 nM | B1
77 | 1300 nM | B2
78 | 1200 nM | B3
79 | 680 nM | B4
80 | 1800 nM | B5

Biological target: T7, human FcγRIIb extracellular domain, …
Assay: SPR (BIACORE), antibody captured, FcγR analyte
Protocol: as §1

Row | Kd | Binder
81 | 380 nM | B1
82 | 510 nM | B2
83 | 690 nM | B3
84 | 370 nM | B4
85 | 500 nM | B5

Biological target: T9, human FcγRIIIaV extracellular domain, …
Assay: SPR (BIACORE), antibody captured, FcγR analyte
Protocol: as §1

Row | Kd | Binder
86 | 4500 nM | B1
87 | 3400 nM | B2
88 | 5200 nM | B3
89 | 4600 nM | B4
90 | 3400 nM | B5
